Results taken from publication doi:10.64898/2025.12.12.693941 (bioRxiv, 2025).
Where a chain is given by its changes, count along the chain named. Numbers in names are those of the source.

B1: M. tuberculosis Ku R262A (natural protein)
chain: MRAIWTGSIAFGLVNVPVKVYSATADHDIRFHQVHAKDNGRIRYKRVCEACGEVVDYRDLARAYESGDGQMVAITDDDIASLPEERSREIEVLEFVPAADVDPMMFDRSYFLEPDSKSSKSYVLLAKTLAETDRMAIVHFTLRNKTRLAALRVKDFGKREVMMVHTLLWPDEIRDPDFPVLDQKVEIKPAELKMAGQVVDSMADDFNPDRYHDTYQEQLQELIDTKLEGGQAFTAEDQPRLLDEPEDVSDLLAKLEASVKAASKANSNVPTPP
B2: M. tuberculosis Ku K260A (natural protein)
chain: B1 chain with K260A, A262R
B3: M. tuberculosis Ku E256A (natural protein)
chain: B1 chain with E256A, A262R
B4: M. tuberculosis Ku S258A (natural protein)
chain: B1 chain with S258A, A262R
B5: M. tuberculosis Ku E246A (natural protein)
chain: B1 chain with E246A, A262R
B6: M. tuberculosis Ku, wild type, His-tagged and RED-tris-NTA labelled (MST ligand) (natural protein)
chain: B1 chain with A262R
B7: M. tuberculosis Ku V248A (natural protein)
chain: B1 chain with V248A, A262R
B8: M. tuberculosis Ku, wild type, His-tag removed by TEV (MST analyte) (natural protein)
chain: B1 chain with A262R
B9: M. tuberculosis Ku N266A (natural protein)
chain: B1 chain with A262R, N266A
B10: M. tuberculosis Ku S263A (natural protein)
chain: B1 chain with A262R, S263A

Key:
[1] = biological target: M. tuberculosis LigD, wild type, His-tag removed by TEV (MST analyte) (M. tuberculosis, UniProt P9WNV3 1-759); experiment: MST
SEC-MALS = biological target: the molecule itself; experiment: SEC-MALS
[2] = biological target: M. tuberculosis LigD L580E (M. tuberculosis, UniProt P9WNV3 1-759, L580E); experiment: MST
[3] = biological target: M. tuberculosis LigD D162R (M. tuberculosis, UniProt P9WNV3 1-759, D162R); experiment: MST
[4] = biological target: M. tuberculosis LigD K579E (M. tuberculosis, UniProt P9WNV3 1-759, K579E); experiment: MST
[5] = biological target: M. tuberculosis LigD R198E (M. tuberculosis, UniProt P9WNV3 1-759, R198E); experiment: MST
[6] = biological target: M. tuberculosis LigD V194D (M. tuberculosis, UniProt P9WNV3 1-759, V194D); experiment: MST

Binder | binding result [1] | stoichiometry N (SEC-MALS) | other results
B1 | binds | 2 | –
B2 | binds | 2 | –
B3 | binds | 2 | –
B4 | binds | 2 | –
B5 | binds | 2 | –
B6 | – | – | Kd [1]: 850 nM
B7 | binds | 2 | –
B8 | – | – | Kd [2]: 1270 nM; binding result [3]: binds; Kd [4]: 510 nM; binding result [5]: binds; binding result [6]: binds
B9 | – | 2 | –
B10 | binds | 2 | –
